In article PMC8205527, “Structural basis for the coiled-coil architecture of human CtIP” (Open Biology, 2021):

Biological target: the molecule itself
Assay: SEC-SAXS; Superdex 200 Increase 3.2/300 in 20 mM Tris HCl 8.0, 300 mM NaCl; protein at 3–10 mg/ml; Guinier analysis, P(r), MONSA and BilboMD modelling

B1: CtIP-cNTD 31–145 (wild type) (domain or fragment, human, UniProt Q99708 31-145, looked up)
chain: HDREVQGLQVKVTKLKQERILDAQRLEEFFTKNQQLREQQKVLHETIKVLEDRLRAGLCDRCAVTEEHMRKKQQEFENIRQQNLKLITELMNERNTLQEENKKLSEQLQQKIEND
notes: also called wild-type CtIP-cNTD; C-terminal NTD; source: E. coli BL21(DE3) Rosetta 2, purified (Ni-NTA, TEV cleavage, Strep-Tactin, SEC); not shown: His6, N-terminal, cleaved; MBP, N-terminal, cleaved
Question: How did the “stoichiometry N” value turn out when B1 was run?
Answer: Its value is 2.

B2: CtIP-NTD (18–145) (domain or fragment, human, UniProt Q99708 18-145, looked up)
chain: SDFKDLWTKLKECHDREVQGLQVKVTKLKQERILDAQRLEEFFTKNQQLREQQKVLHETIKVLEDRLRAGLCDRCAVTEEHMRKKQQEFENIRQQNLKLITELMNERNTLQEENKKLSEQLQQKIEND
notes: also called CtIP N-terminal domain; source: E. coli BL21(DE3) Rosetta 2, purified (Ni-NTA, TEV cleavage, Strep-Tactin, SEC); not shown: His6, N-terminal, cleaved; MBP, N-terminal, cleaved
Question: B2 was tested. Which “stoichiometry N” value did it give?
Answer: Its value is 4.
